Source: patent publication US20170015742A1 (published 2017)
Where a chain is given by its changes, count along the chain named.

B1: 3E2.1_GS_CL-34565 (PR-1613189) (bispecific antibody, human IgG1, kappa, L234A L235A)
heavy: EVQLVQSGAEVKKPGSSVKVSCKASGYTFTESYMYWVKQAPGQGLELIGRIDPEDGSTDYVEKFKNKATLTADKSTSTAYMELSSLRSEDTAVYFCARFGARSYFYPMDAWGQGTTVTVSSGGGGSGGGGSEVQLVQSGSELKKPGASVKVSCKASGYTFTDYGMYWVRQAPGQGLEWMGWIDTETGDPTYADDFKGRFVFSLDTSVSTAYLQISSLKAEDTAVYYCARTNYYYRNYMFYFDYWGQGTMVTVSSASTKGPSVFPLAPSSKSTSGGTAALGCLVKDYFPEPVTVSWNSGALTSGVHTFPAVLQSSGLYSLSSVVTVPSSSLGTQTYICNVNHKPSNTKVDKKVEPKSCDKTHTCPPCPAPEAAGGPSVFLFPPKPKDTLMISRTPEVTCVVVDVSHEDPEVKFNWYVDGVEVHNAKTKPREEQYNSTYRVVSVLTVLHQDWLNGKEYKCKVSNKALPAPIEKTISKAKGQPREPQVYTLPPSREEMTKNQVSLTCLVKGFYPSDIAVEWESNGQPENNYKTTPPVLDSDGSFFLYSKLTVDKSRWQQGNVFSCSVMHEALHNAYTQKSLSLSPGK
light: ETVLTQSPATLSLSPGERATLSCRASESVSTLMHWYQQKPGQQPRLLIYGASNLESGVPARFSGSGSGTDFTLTISSLEPEDFAVYFCQQSWNDPWTFGGGTKVEIKGGSGGGGSGGEIVLTQSPATLSLSPGERATLFCRASQSVSNHMHWYQQKPGQAPRLLIYGASILESGVPARFSGSGSGTDFTLTISSLEPEDFAVYYCQQSWYDPITFGQGTKLEIKRTVAAPSVFIFPPSDEQLKSGTASVVCLLNNFYPREAKVQWKVDNALQSGNSQESVTEQDSKDSTYSLSSTLTLSKADYEKHKVYACEVTHQGLSSPVTKSFNRGEC
B2: 3E2.1_GS_1E3.4 (PR-1613190) (bispecific antibody, human IgG1, kappa, L234A L235A)
heavy: EVQLVQSGAEVKKPGSSVKVSCKASGYTFTESYMYWVKQAPGQGLELIGRIDPEDGSTDYVEKFKNKATLTADKSTSTAYMELSSLRSEDTAVYFCARFGARSYFYPMDAWGQGTTVTVSSGGGGSGGGGSEIQLVQSGSELKKPGASVKVSCKASGYPFTNSGMYWVKQAPGQGLEYMGWINTEAGKPTYADDFKGRFVFSLDTSVSTAYLQISSLKAEDTAVYFCARWGYISDNSYGWFDYWGQGTLVTVSSASTKGPSVFPLAPSSKSTSGGTAALGCLVKDYFPEPVTVSWNSGALTSGVHTFPAVLQSSGLYSLSSVVTVPSSSLGTQTYICNVNHKPSNTKVDKKVEPKSCDKTHTCPPCPAPEAAGGPSVFLFPPKPKDTLMISRTPEVTCVVVDVSHEDPEVKFNWYVDGVEVHNAKTKPREEQYNSTYRVVSVLTVLHQDWLNGKEYKCKVSNKALPAPIEKTISKAKGQPREPQVYTLPPSREEMTKNQVSLTCLVKGFYPSDIAVEWESNGQPENNYKTTPPVLDSDGSFFLYSKLTVDKSRWQQGNVFSCSVMHEALHNAYTQKSLSLSPGK
light: ETVLTQSPATLSLSPGERATLSCRASESVSTLMHWYQQKPGQQPRLLIYGASNLESGVPARFSGSGSGTDFTLTISSLEPEDFAVYFCQQSWNDPWTFGGGTKVEIKGGSGGGGSGGATQLTQSPSSLSASVGDRVTISCRASEGVYSYMHWYQQKPGKQPKLLIYKASNLASGVPSRFSGSGSGTDFTLTISSLQPEDFATYFCHQNWNDPLTFGQGTKLEIKRTVAAPSVFIFPPSDEQLKSGTASVVCLLNNFYPREAKVQWKVDNALQSGNSQESVTEQDSKDSTYSLSSTLTLSKADYEKHKVYACEVTHQGLSSPVTKSFNRGEC
B3: CL-32416-IgG (antibody, V domains shown)
VH: EVQLVQSGSELKKPGASVKVSCKASGYTFTDYGMYWVRQAPGQGLEWMGWIDTETGEPTYADDFKGRFVFSLDTSVSTAYLQISSLKAEDTAVYYCARTNYYYRSYMFYFDYWGQGTMVTVSS
VL: EIVLTQSPATLSLSPGERATLSCRASESVSTHMHWYQQKPGQAPRLLIYGASNLESGVPARFSGSGSGTDFTLTISSLEPEDFAVYFCQQSWNDPFTFGQGTKLEIK
notes: also called h4G8 CL-32416
B4: CL-34455-IgG (antibody, V domains shown)
VH: B3 VH with D31N, D62Q, D63G, K65T, R104P
VL: B3 VL with E27Q, S30G, N53K, F87Y, N93Y, F96L
notes: also called h4G8 CL-34455
B5: CL-34469-IgG (antibody, V domains shown)
VH: B3 VH with D31N
VL: B3 VL with E27Q, F87Y, N93Y, F96L
notes: also called h4G8 CL-34469
B6: CL-34522-IgG (antibody, V domains shown)
VH: B3 VH with T30E, D31N, R104S
VL: B3 VL with E27Q, S30G, N53K, F87Y, N93Y, F96L
notes: also called h4G8 CL-34522
B7: CL-34633-IgG (antibody, V domains shown)
VH: B3 VH with T30S
VL: B3 VL with E27Q, N93Y, F96L
notes: also called h4G8 CL-34633
B8: CL-34570-IgG (antibody, V domains shown)
VH: B3 VH with T30D, E57T, R104S
VL: B3 VL with E27Q, V58I, F87Y, N93Y, F96L
notes: also called h4G8 CL-34570
B9: CL-34475-IgG (antibody, V domains shown)
VH: B3 VH with R104S
VL: B3 VL with E27Q, V58I, F87Y, N93Y, F96L
notes: also called h4G8 CL-34475
B10: CL-34540-IgG (antibody, V domains shown)
VH: B3 VH with E57Q
VL: B3 VL with S30G, T31K, G50A, F87Y, N93Y, F96L
notes: also called h4G8 CL-34540
B11: CL-34449-IgG (antibody, V domains shown)
VH: B3 VH
VL: B3 VL with E27Q, S30G, N53H, V58I, F87Y, S91T, N93Y, F96L
notes: also called h4G8 CL-34449
B12: CL-34565-IgG (antibody, V domains shown)
VH: B3 VH with E57D, S105N
VL: B3 VL with S22F, E27Q, T31N, N53I, F87Y, N93Y, F96I
notes: also called h4G8 CL-34565
B13: CL-34538-IgG (antibody, V domains shown)
VH: B3 VH with R104P
VL: B3 VL with E27Q, S91T, N93Y, F96L
notes: also called h4G8 CL-34538

Biological target: recombinant human PDGF-BB (human, UniProt P01127 82-190)
Sequence (P01127 82-190 limits assumed): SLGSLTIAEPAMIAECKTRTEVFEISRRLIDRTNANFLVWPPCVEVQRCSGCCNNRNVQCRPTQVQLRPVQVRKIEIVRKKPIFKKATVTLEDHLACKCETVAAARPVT
Experiment: cell-based or functional assay

Potency IC50 (nM), NIH-3T3 hPDGF-BB (proliferation) [nM]	Binder
1.16	B1
0.896	B2

Biological target: recombinant human VEGF165 (human, UniProt P15692 207-395)
Experiment: cell-based or functional assay
Target sequence in this assay (P15692 other isoform, or with tags, fused parts or gaps limits assumed): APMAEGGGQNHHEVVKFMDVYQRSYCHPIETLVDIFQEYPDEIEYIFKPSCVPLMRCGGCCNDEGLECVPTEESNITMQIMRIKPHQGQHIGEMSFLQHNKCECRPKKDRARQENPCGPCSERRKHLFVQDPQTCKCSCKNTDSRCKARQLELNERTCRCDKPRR

Potency IC50 (nM), HMVEC-d hVEGF165 (proliferation) [nM]	Binder
0.063	B1
0.709	B2

Biological target: T1, recombinant human VEGF165 (human, UniProt P15692 207-395)
Experiment: cell-based or functional assay
T1 sequence (P15692 other isoform, or with tags, fused parts or gaps limits assumed): as above

hVEGF165 IC50 (nM), Potency HMVEC-d (hVEGF165-induced proliferation) [nM]	Binder
0.117	B3
0.105	B4
0.094	B5
0.116	B6
0.138	B7
0.11	B8
0.106	B9
0.139	B10
0.077	B11
0.126	B12
0.127	B13

Biological target: T1, recombinant human VEGF165
Experiment: SPR (Biacore), antibody captured by anti-human Fc, hVEGF165 in solution
Protocol: Unreacted moieties on the biosensor surface were blocked with ethanolamine. For kinetic analysis, rate equations derived from the 1:1 Langmuir binding model were fitted simultaneously to multiple antigen injections (using global fit analysis) with the use of Scrubber 2 (BioLogic Software), Biacore Biaevaluation 4.0.1 software or Biacore T100 Evaluation software. Purified antibodies or DVD-Ig molecules were diluted in running buffer for capture across goat anti-human Fc reaction surfaces. Antibodies or DVD-Ig molecules to be captured as a ligand (1 μg/ml) were injected over reaction matrices at a flow rate of 10 μl/minute. During the assay, all measurements were referenced against the capture surface alone (i.e., with no captured antibody or DVD-Ig molecule). […] The equilibrium dissociation constant KD (M) of the reaction between antibodies and the target antigen was then calculated from the kinetic rate constants by the following formula: KD=Koff/Kₒₙ. Binding was recorded as a function of time and kinetic rate constants were calculated. In this assay, on-rates as fast as 10⁶M⁻¹s⁻¹ and off-rates as slow as 10⁻⁶ s⁻¹ could be measured.
(§1) Affinity matured humanized anti-VEGF antibodies were characterized for hVEGF₁₆₅ binding and potency. Binding affinity of these molecules to hVEGF₁₆₅ was determined by Biacore analysis (Example 1.1). Potency was evaluated in both cell-based and ELISA formats. The ability to block binding of hVEGF₁₆₅ to hVEGFR2 was evaluated in a competition ELISA (Example 1.4) Inhibition of hVEGF₁₆₅-induced cell proliferation was assessed using HMVEC-d cells (Example 1.10).

Kd [pM]	kon [M⁻¹ s⁻¹]	Binder
0.54	2e+07	B3
0.46	2.2e+07	B4
0.62	1.5e+07	B5
0.53	2e+07	B6
0.24	1.7e+07	B7
0.29	1.9e+07	B8
0.52	2.7e+07	B9
0.85	8.4e+06	B10
0.85	1.1e+07	B11
0.4	2e+07	B12
0.24	3.3e+07	B13

Biological target: T1, recombinant human VEGF165
Experiment: competition ELISA: antibody titrated against biotinylated hVEGF165, binding to plate-coated hVEGF-R2-Fc
Protocol: To identify molecules that could block the binding of hVEGF₁₆₅ to the hVEGF-R2 (KDR/Flk-1) receptor, a competition ELISA was performed. […] Plates were then washed four times with wash buffer (TBS, 0.05% Tween-20) and blocked with Superblock blocking buffer (Thermo Scientific, cat#37535). […] The pre-incubated sample/hVEGF₁₆₅ complex was added to the coated plate at 50 μL in duplicate and incubated for 30 minutes at 25° C. with shaking. Following incubation, plates were washed four times with wash buffer. Streptavidin-polyHRP-40 (Fitzgerald cal#65r-s104phrp) was diluted in assay diluent (10% Superblock containing 0.05% surfactamps) and added to plates (50 μL) for 45 minutes at 25° C. with shaking. Plates were washed four times with wash buffer and developed with the addition of Enhanced K-blue TMB substrate (Neogen cat#308177). The reaction was stopped with 2N sulfuric acid (VWR, cat# BDH3500-1) and the absorbance was read at 450 nm-570 nm. A decrease in observed optical density indicates the test molecule is blocking the hVEGF₁₆₅ binding to the hVEGF-R2-Fc. Data was analyzed using Softmax Pro 4.8 software and IC₅₀ values calculated using a sigmoidal dose response (variable slope) fit in GraphPad Prism 5.
as §1

IC50 [pM]	Binder
< 100	B3
< 100	B4
< 100	B5
< 100	B6
< 100	B7
< 100	B8
< 100	B9
< 100	B10
< 100	B11
< 100	B12
< 100	B13
